Reference: paper doi:10.1101/2020.05.12.090381 (bioRxiv, 2020)
Positions count from the first letter of the chain named. Numbers in names are those of the source.

How the values were obtained:
[1] = target: LdcI E445A/D447A/R468E (E. coli) (UniProt P0A9H3); experiment: negative stain EM
[2] = target: LdcI-Dendra2_(T69A) (C-terminal fluorescent protein fusion of LdcI) (E. coli | not stated); experiment: negative stain EM
LdcI R468E (E. coli) = LdcI R468E (E. coli) (UniProt P0A9H3); experiment: negative stain EM
[3] = target: Dendra2_(T69A)-LdcI (N-terminal fluorescent protein fusion of LdcI) (not stated | E. coli); experiment: negative stain EM
[4] = target: LdcI R97E/R468E (E. coli) (UniProt P0A9H3); experiment: negative stain EM
negative stain EM [5] = target: the molecule itself; experiment: negative stain EM
negative stain EM [6] = target: the molecule itself; experiment: negative stain EM; remark: listed apart in the source
cryo-EM structure = target: the molecule itself; experiment: cryo-EM structure

Molecule: LdcI E445A/D447A/R468E (from UniProt P0A9H3 1-715) (enzyme)
- stoichiometry N [1]: 10

Molecule: LdcI-Dendra2_(T69A) (C-terminal fluorescent protein fusion of LdcI)
- stoichiometry N [2]: 10

Molecule: LdcI R468E (from UniProt P0A9H3 1-715) (enzyme)
- stoichiometry N (LdcI R468E (E. coli)): 10

Molecule: Dendra2_(T69A)-LdcI (N-terminal fluorescent protein fusion of LdcI)
- stoichiometry N [3]: 2

Molecule: LdcI R97E/R468E (from UniProt P0A9H3 1-715) (enzyme)
- stoichiometry N [4]: 10

B1: LdcI H694A (enzyme, E. coli, UniProt P0A9H3 1-715, looked up)
chain: MNVIAILNHMGVYFKEEPIRELHRALERLNFQIVYPNDRDDLLKLIENNARLCGVIFDWDKYNLELCEEISKMNENLPLYAFANTYSTLDVSLNDLRLQISFFEYALGAAEDIANKIKQTTDEYINTILPPLTKALFKYVREGKYTFCTPGHMGGTAFQKSPVGSLFYDFFGPNTMKSDISISVSELGSLLDHSGPHKEAEQYIARVFNADRSYMVTNGTSTANKIVGMYSAPAGSTILIDRNCHKSLTHLMMMSDVTPIYFRPTRNAYGILGGIPQSEFQHATIAKRVKETPNATWPVHAVITNSTYDGLLYNTDFIKKTLDVKSIHFDSAWVPYTNFSPIYEGKCGMSGGRVEGKVIYETQSTHKLLAAFSQASMIHVKGDVNEETFNEAYMMHTTTSPHYGIVASTETAAAMMKGNAGKRLINGSIERAIKFRKEIKRLRTESDGWFFDVWQPDHIDTTECWPLRSDSTWHGFKNIDNEHMYLDPIKVTLLTPGMEKDGTMSDFGIPASIVAKYLDEHGIVVEKTGPYNLLFLFSIGIDKTKALSLLRALTDFKRAFDLNLRVKNMLPSLYREDPEFYENMRIQELAQNIHKLIVHHNLPDLMYRAFEVLPTMVMTPYAAFQKELHGMTEEVYLDEMVGRINANMILPYPPGVPLVMPGEMITEESRPVLEFLQMLCEIGAHYPGFETDIAGAYRQADGRYTVKVLKEESKK
- binding result (negative stain EM [5]): binds

B2: LdcI H694N (enzyme, E. coli, UniProt P0A9H3 1-715, looked up)
chain: B1 chain with A694N
- binding result (negative stain EM [5]): binds

B3: mGeosM-LdcI (N-terminal fluorescent protein fusion of LdcI) (other)
chain: MSAIKPDMKIKLRMEGNVNGHHFVIDGDGTGKPFEGKQSMDLEVKEGGPLPFAFDILTTAFMYGNRVFAKYPDNIQDYFKQSFPKGYSWERSLTFEDGGICIARNDITMEGDTFYNKVRFYGTNFPANGPVMQKKTLKWEPSTEKMYVRDGVLTGDIHMALLLEGNAHYRCDSRTTYKAKEKGVKLPGYHFVDHCIEILSHDKDYNKVKLYEHAVAHSGLPDNARRMNVIAILNHMGVYFKEEPIRELHRALERLNFQIVYPNDRDDLLKLIENNARLCGVIFDWDKYNLELCEEISKMNENLPLYAFANTYSTLDVSLNDLRLQISFFEYALGAAEDIANKIKQTTDEYINTILPPLTKALFKYVREGKYTFCTPGHMGGTAFQKSPVGSLFYDFFGPNTMKSDISISVSELGSLLDHSGPHKEAEQYIARVFNADRSYMVTNGTSTANKIVGMYSAPAGSTILIDRNCHKSLTHLMMMSDVTPIYFRPTRNAYGILGGIPQSEFQHATIAKRVKETPNATWPVHAVITNSTYDGLLYNTDFIKKTLDVKSIHFDSAWVPYTNFSPIYEGKCGMSGGRVEGKVIYETQSTHKLLAAFSQASMIHVKGDVNEETFNEAYMMHTTTSPHYGIVASTETAAAMMKGNAGKRLINGSIERAIKFRKEIKRLRTESDGWFFDVWQPDHIDTTECWPLRSDSTWHGFKNIDNEHMYLDPIKVTLLTPGMEKDGTMSDFGIPASIVAKYLDEHGIVVEKTGPYNLLFLFSIGIDKTKALSLLRALTDFKRAFDLNLRVKNMLPSLYREDPEFYENMRIQELAQNIHKLIVHHNLPDLMYRAFEVLPTMVMTPYAAFQKELHGMTEEVYLDEMVGRINANMILPYPPGVPLVMPGEMITEESRPVLEFLQMLCEIGAHYPGFETDIHGAYRQADGRYTVKVLKEESKK
- stoichiometry N (negative stain EM [6]): 12

B4: LdcI-mGeosM (C-terminal fluorescent protein fusion of LdcI) (other)
chain: B1 chain with A694H
- stoichiometry N (negative stain EM [6]): 10

B5: E. coli inducible lysine decarboxylase LdcI, wild type (enzyme, UniProt P0A9H3 1-715, looked up)
chain: B1 chain with A694H
- stoichiometry N (cryo-EM structure): 10

B6: LdcI E445A/D447A (enzyme, E. coli, UniProt P0A9H3 1-715, looked up)
chain: B1 chain with E445A, D447A, A694H
- binding result (negative stain EM [5]): binds

B7: LdcI R97E (enzyme, E. coli, UniProt P0A9H3 1-715, looked up)
chain: B1 chain with R97E, A694H
- binding result (negative stain EM [5]): binds
